Experimental data taken from patent US20160333065A1.

Biological target: HLA-A1 (A*0101) (human)
Test: cell competition vs YLEPAC(FI)AKY, stripped CAA B-LCL, FACS

IC50: 1 µM
Binder: ITDDQLLAL (modifications not checked) [PRAME peptide …]
